Our source for the Kd values is publication PMC5327412, “Characterization of the CD177 interaction with the ANCA antigen proteinase 3” (Scientific Reports, 2017).

In the experiment the target is T1, recombinant CD177 (UniProt Q8N6Q3 22-408).
T1 construct: CD177, GPI-anchored neutrophil membrane receptor; recombinant soluble form that lacks the C-terminal GPI-anchor domain; secreted via an N-terminal Ig1 secretion signal peptide; Made from plasmid pTT5; also called rCD177; not shown: Fc (human Ig1), C-terminal, cleaved
T1 sequence (looked up): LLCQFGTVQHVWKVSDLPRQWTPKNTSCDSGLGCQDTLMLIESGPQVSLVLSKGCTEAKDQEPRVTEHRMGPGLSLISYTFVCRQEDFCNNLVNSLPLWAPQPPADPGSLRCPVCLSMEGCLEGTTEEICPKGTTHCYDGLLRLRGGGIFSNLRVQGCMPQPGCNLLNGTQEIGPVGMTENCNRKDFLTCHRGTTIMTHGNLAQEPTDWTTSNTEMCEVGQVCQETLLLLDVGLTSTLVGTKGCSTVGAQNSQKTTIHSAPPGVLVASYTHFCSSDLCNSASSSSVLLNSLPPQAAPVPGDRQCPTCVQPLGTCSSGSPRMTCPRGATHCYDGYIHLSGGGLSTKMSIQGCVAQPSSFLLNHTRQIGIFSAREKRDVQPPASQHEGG
Kind of experiment: SPR; CD177 immobilised on a GLH sensor chip by standard amine chemistry, PR3 as soluble analyte; ProteOn XPR36. A general note: Surface plasmon resonance follows binding to a sensor surface in real time, without labels.

Where two headings read alike, the source gives them in different places.

Take recombinant PR3 (enzyme): the Kd was 4.1 nM.

Turning to “monomeric PR3 hydrophobic patch mutant (Ile217Ala, Trp218Ala) (enzyme)”, the dissociation constant (Kd) stood at 57 nM.

B1: neutrophil-derived PR3 (enzyme, UniProt P24158 28-248, looked up)
chain: IVGGHEAQPHSRPYMASLQMRGNPGSHFCGGTLIHPSFVLTAAHCLRDIPQRLVNVVLGAHNVRTQEPTQQHFSVAQVFLNNYDAENKLNDVLLIQLSSPANLSASVATVQLPQQDQPVPHGTQCLAMGWGRVGAHDPPAQVLQELNVTVVTFFCRPHNICTFVPRRKAGICFGDSGGPLICDGIIQGIDSFVIWGCATRLFPDFFTRVALYVDWIRSTLR
notes: Proteinase 3 (PR3), neutrophil serine protease, purified from neutrophils, proteolytically active; also called nPR3; proteinase 3; source: bought: Athens Research&Technology; neutrophil-derived
Regarding B1, the Kd (both partners purified) is 4.1 nM.

As usually defined, the Kd is the constant that tells how readily two partners part at equilibrium.
